Assay: yeast display, Sf9 membrane polyspecificity reagent, FACS + sequencing; frameworks hold sequencing errors
Summary of the method: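 Polyreactivity labels are assigned by the sorting gate from which each nanobody was recovered. The gates were low and high (top ~1%), set on anti-HA fluorescence for expression and streptavidin fluorescence for reagent binding. Before sorting, galactose-induced (36–48 hours) yeast display cells were stained for 1 hour at 4 °C with 10% biotinylated, detergent-solubilized Sf9 membrane reagent.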

Row | Sequence | polyreactivity (PSR sort gate)
1 | QVQLVESGGGLVQAGGSLRLTCAASGRTFRRNAMGWYRPAPAKERELVAAITSGGGTYYADSVKGRFTISRDNAKNTVYLQMNSLKPEDTAVYYCNKKTSAGRVDYWGQGTQVTVSS | high polyreactivity
2 | QVQLVESGGGLVQAGGSLRLSCASSGITFRRYTMVWYRQAPGKERELVAAISRIGGSTYYADSVKGRFTISRDNAKNTVYLQMNSLKPEDTAVYYCATYYGGSGYDYWGQGTEVTVSS | high polyreactivity
3 | QVQLVESGGGLVQAGGSLRLSCAASGSTFQLYAMGWYRQAPGKERELVAAISGIGDSTYYADSVKGRFTISRDNAKNTVYLQMNSLKPEDTAVYYCAREFSDGLSGKFDYWGQGTQVTVSS | low polyreactivity
4 | QVQLVESGGGLVQAGGSLRLSCAASGFTFRWYTMGWYRQAPGKERELVASIRYGGGSTYYADSVKGRFTISRDNAKNTVYLQMNSLNPEDTAVYYCAAESAWTSPYDYWGQGTQVTVSS | high polyreactivity
5 | QVQLVESGGGLVQAGGSLRLSCAASGGIFSRYAMGWYRQAPGKEREFVAAISFSGASTYYTDSVKGRFTISRDTAKNTVYLQMNSLKPEDTAVYYCAAYWDAEGRRYTRLDYWGQGTQVTVSS | low polyreactivity
6 | QVQLVESGGGLVQAGGRLRLSCAASGYTFTHYAMGLYRQAPVKESELVASIRNSGSRTYYADSVKGRFTISPDNAKNTVYLQLNSLKPEDTAVYYCAAKTTTPYRYIYYYWGQGTQVTVSS | high polyreactivity
7 | QVQLVESGGGLVQAGGSLRLSCAASGRIFFSTVMGWDRQAPGKERELVAAISWSGGSTYYADSVKGRFTISRDNAKNTVYLQMNSLKPEDTAVYYCNRLSASVQYGYWGQGTQVTVSS | high polyreactivity
8 | QVQLVESGGGLVQAGGSLRLSCAASGNTFSGNAMGWYRQAPGKERELVAAISGSGASTYYADSVKGRFTISRDNAKNTVYLQMNSLKPEDTAVYYCAADKPGIFSRFDYWGQGTQVTVSS | low polyreactivity
9 | QVQLVESGGVLVQAGGSLRLSCAASGRTFIFYAMGWYRQAPRKERELVAAITYSGTSTYYADSVKGRFTISRDNAKNTVYLQMNSLKPEDTAVYYCAKDGQRDANYYWGQGTQVTVSS | low polyreactivity
10 | QVQLVESRGGLVQAGGSLRLSCADSGITFYVYTMGWNIKAPGKQRDLVASISGRGGSTYYAVSVKGRFTISRDNAKNTVYLQMNSLKPEDTAVYYCEAYRLRFWSMDYWGQGTQVTGSS | high polyreactivity
11 | QVQLVESGGGLVQAGGSLRLSCAASGLTFGVYAMGWYRQAPGQERELVAASTWGDGSTYYADSVKGRFTISRDNAKNTGYLQMNSLKPEDTAVYYCNAVTRRHKYYYWGQGTQVTVSS | high polyreactivity
12 | QVQLVESGGGLVQAGGSLRLSCAASGRIFSYYAMGWYRQAPGKERELVASISTSSGSTYYADSVKGRFTISRDNAKNTVYLQMNSLKPEDTAVYYCNADYTGYYRWRNDDYWGQGTQVTVSS | high polyreactivity
13 | QVQLVETGGVLVQAGGSLRLSCAASGRIFPPNAMGWSRQAPGKEREFVASINRSGGRTYYADSVKGRFTISRDNAKNTVYLQMNSLKPEDTAVYYCAATGGYSCPLGVSWKYEYWGQGNQVTVSS | low polyreactivity
14 | QVQLVESGGRLVQAGGSLRLSCAASGSTFWYYAMGWYRQAPGKERELVASITYSGGSTYYADSVKGRFTISRDTAKNTVYLQMNSLKPEDTAVYYCAAEGYYSNYHYWGQGTQVTVSS | low polyreactivity
15 | QVQLVESGGGLVQAGGSLRVSCAASGFIFPGNAMGWYRQAPGKERELVAAISNSGSRTYYADSVKGRFTISRDNAKNTVYLQMNSLKPEDTAVYYCNADVHNRGWPYDYWGQGTQVTVSS | low polyreactivity
16 | QVQLVESGGGLVQAGGSLRLSCAASGRIIDRNAMGWYRQAPGKERELVAAISSSGSTNYADSVKGRFTISRDNAKNTVYLQMNSLKPEVTAVYYCAARWRSVLAAGTRPVSFDYWGQGTQVTVSS | low polyreactivity
17 | QVQLVESGGGLVQAGGSLRLSCAASGLTFYTYPMGWYRQAPGKERELVAAISSGGSTNYADSVKGRFTISRDNAKNTVYLQMNSLTPEDTAVYYCAADPSYFTYFSFDLSESDYWGKGTQVTVSS | low polyreactivity
18 | QVQLVESGGGLVQAGGSLRLSCAASGRTFVRYTMGWYRQAPGKERELVAAISISGGRTYYADSVQGRFTISRDNAKNTVYLQMNSLKPEDTAVYYCAKDYLGGQLASTGGYDYWGLGTQVTVSS | low polyreactivity
19 | QVQLVESGGGLVQAGGSLRLSCAASGLTFGRNAMGWYRQAPGKERELVAAISRSGGRTSYADSVKGRFTISRDNAKNTVYLHMNSLKPEDTAVYYCAARSPIYRTTYYYWGQGTQVTVSS | high polyreactivity
20 | QVQLVESGGGLVQAGGSLRLSCAASGGIFSLYAMGWYRQAPGKERELVAAISRRGTITYYADSVKGRFTISRDNAMNTVYLQMNSLKPEDTAVYYCAALWHAVFYADYDYWGQGTQVTVSS | high polyreactivity
21 | QVQLVESGGGLVQAGGSLRLSCAASGSTFTNYAMGWYRQAPGKERELVAGISRSGGTTYYADSVKGRFTISRDNVKNTVYLQMNSLKPEDTAVYYCAAVGYFGGYRYDYWGQGTQVTVSS | high polyreactivity
22 | QVHLVESGGGLVQAGGSLRLSCAASAFTFSQYAMGWYRQAPGKERELVAVISINGGSTYYADSVKGRFTISRDNAKNTVYLQMNSLKPEDTAVYYCAADDTDSEYYGYDYWGQGTQVTVSS | low polyreactivity

Row | Sequence | polyreactivity (PSR sort gate)
23 | QDQLVESGGGLVQAGGSLRLSCAASGRIFYRYAMGWYRQAPGKERELVATISRSGGSTNYADSVKGRFTISRDNAKKTVYLQLNSLKPEDTAVYYCAAQYTYRFPYPGYATTHDYWGQGTQVTVSS | high polyreactivity
24 | QVQLVESGGGLVQAGGSLRLSCAASGGIFAPYAMGWYRQAPGKERELVATISFSGGSTYYADSVKGRFTISRDNAKNTVYLQMNSLKPEDTAVYYCAKRYIYSLLYGLDYWGQGTQVTVSS | low polyreactivity
25 | QVQLVESGGGLVQAGGSLRLSCAASGRTFYPNAMGWYRQAPGKEREFVARISDSGGSTYYADSVKGRFTISRDNAKNTVYLLMNSLKPEDTAVYYCAADYGDPRVNEYDYWGQGTQVTVSS | low polyreactivity
26 | QVQLVESGGGLVQAGGSLRLSCAASGFIFSYYAMGWYRQAPGKERELVAAISSSGSRTYYADSVKGRFTISRDNAKNTVYLQMNSLKPEDTAVYYCNARTTSGWGQGTQVTVSS | high polyreactivity
27 | QVQLVESGGGLVQAGGSLRLSCAASGSIFDNYALGWYRQAPGKERELVAAISWNGGDTTYADSVKGRFTISRDNAKNTVYLQMNSLKPEDTAVYYCAADLGYWVADFYWGQGTQVTVSS | high polyreactivity
28 | QVQLVESGGGLVQAGGSLRLSCAASGSIFTFYAMGWYRPAPGKERELVAAITRSGGSTYYADSVKGRFTISRDNAKNTVYLQMNSLKPEDTAVYYCAKDPSSYVTYRYYYWGQGTEVTVSS | low polyreactivity
29 | QVQLVESGGGLVQAGGSLRLSCAASGSIFNDYAMGWYRQAPGKERELVATISSGGDTYYADSVKGRFTISRDNAKNTVYLQMNSLKPEDTAVYYCAALTGGYVVYTDSYDYWGQGTQVTVSS | low polyreactivity
30 | QVQLVESGGGLVQAGGSLRLSCAASGRIFYSKVMGWYRQAPGKERELVAALSGRTGGTYYADSVKGRFTISRDNAKNTVYLQMNSLKPEDTAVYYCAARVLYYYGSGPYDYWGQGTQVTVSS | low polyreactivity
31 | QVQLVESGGGLVQAGGSLRLSSAASGIIFDYNAMGWYRQAPGKERELVAAISYSGDSTYYADSVKGRFTISRDNAKNTVYLQMNSLKPEDTAVYYCAAVIYFGWWYVYTEDDYWGQGTQVTVSS | high polyreactivity
32 | QVQLVESGGGLVQAGGSLRLSCAASGLIFGPYTMGWYRQAPGKERELVAAISRSGGITYYADSEKGRFTISRDNAKNTVYLQMNSLKPEDTAGYYCAARYSTQWSRYDYWGQGTQVTVSS | high polyreactivity
33 | QVQLVESWGGLVQAGGSLRLSCAASGSNFYTYAMGWYRQAPGKERDFVAAITWSGGRTYYADSVKGRFTISRDNAKNSVYLQMNSLKPEDTAVYYCAATSWWATTGFDYWGQGTQVTVSS | low polyreactivity
34 | QVQLVESGGALVQAGGSLRLSCAASGRIFIVYAMRWYRQAPGKERELVASITSGASTNYADSVKGRFTISRDNAKNTVYLQMNSLKPEDTAVYDCNADGPGAYLSEFGYWGQGTQVTVSS | low polyreactivity
35 | QVQLVESGGGLVQAGGSLRLSCAASGRTFRVYAMGWYRQAPGKEREFVAAISYSGGRTNYADSVKGRFTISRDNAKNTVYLQMNSLKPEDTAVYYCARTKQEYTFGQFYLGDYWGQGTQVTVSS | low polyreactivity
36 | QVQLVESGGGLVQAGGSLRLSCAASGLIFVGYAMGWSRQAPGKERELVAAITSGGYTKYADSVKGRFTISRDNAKYSVYLQMNSLKPEDTAVYFCAASGWRKWWSARNYYWGQGTQVTVSS | low polyreactivity
37 | QVQLVESGGGLVQAGGSLRLSSAASGFTLGYNAMGWYRQAPGKERELVAGITWSGGSTSYADSVKGRFTISRDNAKNTVYLQMNSLKPEDTAVYYCAKLRRYSGWLPWPYAYDYWGQGTQVTVSS | high polyreactivity
38 | QVQLVESAGGLVQAGGSLRLSCAPSGSILASNAMGCYRQAPGKDRELVSAITTSGGSTYYADYVKGRFTISLDNAKNTVYLQMNSLKPEDTAVYYCNAEYSRGRWLRYGYWGQGTQVTVSS | high polyreactivity
39 | QVQLVESGGGLVQAGGSLRLSCAASGIIFKEYAMGGYRPAPGKERELVAAISGRGGSTYYADSVKGRFSISRDNAKNTVYLQMSSLKPEDTAVYYCNAVASWQRYDYWGQGTQVTVSS | high polyreactivity
40 | QVQLVESGGGLVQAGGSLRLSCAASGFTFADNAMGGYREAPGKERQFVASITYSTGSTYADSVKGRFTISRDNAKNTVYLQMHSLTPEDTAVYYCAVDNISNWAVENDYWGQGTQVTVSS | low polyreactivity
41 | QVQLVESGGGLVQAGGSLRLSCAASGYTFNRNAMGWYRQAPGKERELVASITRRGGYTYYADSVKGRFTISRDNAKNTDYLQMISLKPEDTAVYYCAVESIRTGDYWGQGTQVTVSS | high polyreactivity
42 | QVQLVESGGGLVQAGGSLRLSCAASGRIFKLYAMGWYRQAPGKERELVAAISTSGGSTYYADSVKGRFTISRDNAKNTVYLQMNSLKPEDTAVFYCAADPLSGYDYWGQGTQVTVSS | high polyreactivity
43 | QVQLVESGGGIVQAGGSLRLSCAASGRTFSPYAMGWYRQAPGKERELVAGITWSGGSTYYSDSVKGRFTISRDYAKNPVYFQMNFLKPEDTAVYYCNAVGTYAYYCSFAYDYWGQGTQVNVSS | high polyreactivity
